{"source": "patent US20250249113A1", "about": "“LIGAND-DRUG-CONJUGATES WITH IMPROVED PHARMACOKINETIC AND DRUG RELEASE PROPERTIES” (Debiopharm Research & Manufacturing S.A., priority 2022, published 2025)", "assay_in_all_cases": "In vitro cytotoxicity on DLBCL cell lines panel (CellTiter Glo)", "format_in_all_cases": "cell-based", "key": {"[1]": {"tested_on": "Toledo cells", "conditions": "Toledo cell line, 72 hours of incubation, relative IC50", "experimental": "(§1) After 72 hours of incubation, plates were inspected under an inverted microscope to ensure growth of the controls and sterile conditions. Then, 50 μL CellTiter Glo (Promega, G7572) were added prior to luminescence reading as per the manufacturer's instructions. Relative IC50 were calculated using GraphPad Prism."}, "[2]": {"tested_on": "U-2932 cells", "conditions": "U-2932 cell line, 72 hours of incubation, relative IC50", "experimental": "as §1"}, "[3]": {"tested_on": "WSU-NHL cells", "conditions": "WSU-NHL cell line, 72 hours of incubation, relative IC50", "experimental": "as §1"}, "[4]": {"tested_on": "KARPAS-422 cells", "conditions": "KARPAS-422 cell line, 72 hours of incubation, relative IC50", "experimental": "as §1"}, "[5]": {"tested_on": "OCI-LY3 cells", "conditions": "OCI-LY3 cell line, 72 hours of incubation, relative IC50", "experimental": "as §1"}, "[6]": {"tested_on": "Pfeiffer cells", "conditions": "Pfeiffer cell line, 72 hours of incubation, relative IC50", "experimental": "as §1"}, "[7]": {"tested_on": "SU-DHL-4 cells", "conditions": "SU-DHL-4 cell line, 72 hours of incubation, relative IC50", "experimental": "as §1"}, "[8]": {"tested_on": "A3/KAW cells", "conditions": "A3/KAW cell line, 72 hours of incubation, relative IC50", "experimental": "as §1"}, "[9]": {"tested_on": "SU-DHL-2 cells", "conditions": "SU-DHL-2 cell line, 72 hours of incubation, relative IC50", "experimental": "as §1"}, "[10]": {"tested_on": "SU-DHL-8 cells", "conditions": "SU-DHL-8 cell line, 72 hours of incubation, relative IC50", "experimental": "as §1"}, "[11]": {"tested_on": "OCI-LY19 cells", "conditions": "OCI-LY19 cell line, 72 hours of incubation, relative IC50", "experimental": "as §1"}, "[12]": {"tested_on": "SU-DHL-6 cells", "conditions": "SU-DHL-6 cell line, 72 hours of incubation, relative IC50", "experimental": "as §1"}, "[13]": {"tested_on": "OCI-LY7 cells", "conditions": "OCI-LY7 cell line, 72 hours of incubation, relative IC50", "experimental": "as §1"}, "[14]": {"tested_on": "SU-DHL-5 cells", "conditions": "SU-DHL-5 cell line, 72 hours of incubation, relative IC50", "experimental": "as §1"}, "[15]": {"tested_on": "HBL-1 cells", "conditions": "HBL-1 cell line, 72 hours of incubation, relative IC50", "experimental": "as §1"}, "[16]": {"tested_on": "DOHH-2 cells", "conditions": "DOHH-2 cell line, 72 hours of incubation, relative IC50", "experimental": "as §1"}, "[17]": {"tested_on": "WSU-DLCL2 cells", "conditions": "WSU-DLCL2 cell line, 72 hours of incubation, relative IC50", "experimental": "as §1"}}, "data": [{"molecule": "Debio 1562: Comparative example: naratuximab reacted with crosslinking reagent SMCC and the maytansinoid DM1; DAR 3.5 (conjugate, chains of the INN, looked up, SMCC-DM1, DAR 3.5) VH: QVQVQESGPGLVAPSQTLSITCTVSGFSLTTSGVSWVRQPPGKGLEWLGVIWGDGSTNYHPSLKSRLSIKKDHSKSQVFLKLNSLTAADTATYYCAKGGYSLAHWGQGTLVTVSS VL: DIQMTQSPSSLSVSVGERVTITCRASENIRSNLAWYQQKPGKSPKLLVNVATNLADGVPSRFSGSGSGTDYSLKINSLQPEDFGTYYCQHYWGTTWTFGQGTKLEIK", "values": [{"measurement": "IC50", "setting": "[1]", "value": 90, "unit": "nM"}, {"measurement": "IC50", "setting": "[2]", "value": 3.57, "unit": "nM"}, {"measurement": "IC50", "setting": "[3]", "value": 0.19, "unit": "nM"}, {"measurement": "IC50", "setting": "[4]", "value": 20.5, "unit": "nM"}, {"measurement": "IC50", "setting": "[5]", "value": 0.352, "unit": "nM"}, {"measurement": "IC50", "setting": "[6]", "value": 73.5, "unit": "nM"}, {"measurement": "IC50", "setting": "[7]", "value": 0.983, "unit": "nM"}, {"measurement": "IC50", "setting": "[8]", "value": 33, "unit": "nM"}, {"measurement": "IC50", "setting": "[9]", "value": 7.78, "unit": "nM"}, {"measurement": "IC50", "setting": "[10]", "value": 21.5, "unit": "nM"}, {"measurement": "IC50", "setting": "[11]", "value": 45.5, "unit": "nM"}, {"measurement": "IC50", "setting": "[12]", "value": 1.74, "unit": "nM"}, {"measurement": "IC50", "setting": "[13]", "value": 79.3, "unit": "nM"}, {"measurement": "IC50", "setting": "[14]", "value": 0.901, "unit": "nM"}, {"measurement": "IC50", "setting": "[15]", "value": 0.217, "unit": "nM"}, {"measurement": "IC50", "setting": "[16]", "value": 0.949, "unit": "nM"}, {"measurement": "IC50", "setting": "[17]", "value": 9.59, "unit": "nM"}]}]}
